The source of these data is the nanobody polyreactivity screen of Harvey et al. (2022).

The series is described as follows: yeast display, Sf9 membrane polyspecificity reagent, FACS + sequencing; frameworks hold sequencing errors. The gist of the method:
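Genes from sorted yeast were amplified by colony PCR, read by MiSeq 2 × 250 sequencing and filtered on CDR length. These cells carried a synthetic nanobody library in Saccharomyces cerevisiae BJ5465 and were sorted by FACS into low and high (top ~1%) gates on anti-HA and streptavidin fluorescence. Polyreactivity is labelled according to the gate of origin.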
As for “QVQLVESGGGLVQAGGSLRLSCAASGLTFYVYAMGWYRQAPGKERELVAAISGRGGRTYYADSVKGRLTISRDNAKNTVYLQMNSLKPEDTAVYYCNRDYAVFSYGEYDSWGQGTQVTVSS”, the “polyreactivity (PSR sort gate)” value is reported as “high polyreactivity”.

Take “QVQLVESGGGLVQAGGSLRLSCAASGRIFLWYAMGWYRQAPGKERELVAAISSGGSTIYADSVKGRFTISRDNAKNTVYLQMNSLKPEDTAVNYCAAFPTQRRHPLVGFNSWGQGTQVTVSS”: the “polyreactivity (PSR sort gate)” value was “high polyreactivity”.

In the case of “QVQLEESGGGLVQAGGSLRLSCASYGSIFGHYAMGLYRQAPGKARELVAGISKSGGRTYDADSVKGRFTISRDNAKNTVFLQMNSLKPEDTAVYYCNALVTRYQSLDRLGDYWGQGTQVTVSS”, the “polyreactivity (PSR sort gate)” value is given as “high polyreactivity”.

For the sequence “QVQLVESGGGLVQAGGSLRLSCAASGRTFGRNAMGWYRQAPGERELVAVISRGGSTYYADSVKGRFTISRDNAKNTVYLQMNSLKPEDTAVYYCNADTVYTRNATYDYWGQCTQVTVSS”, the “polyreactivity (PSR sort gate)” value is recorded as “low polyreactivity”.

For “QVQLVDSRGGLVQAGGSLRLSCSASGSIFPANVMGWYRQAPGKERELVASINSGDDTNYADSVKGRFTISRDNAKNTVYLQMNSLKPEDTAVYYCATGDWYPYGDYIYDYWGQGTQVTVSS”, the “polyreactivity (PSR sort gate)” value is recorded as “low polyreactivity”.

For “QVQLVESGGGLVQAGGSLRLSCAASVRIFPHKAMGWYIQAPGKERELVAAISSNGGSTYYADSVKGRFTISRDNAKNTVYLQMNSLKPEDTAVYYCAKYRYFAGDGDYWGQGTQVTVSS”, the “polyreactivity (PSR sort gate)” value is “low polyreactivity”.

Take “QVQLVESGGGLVQAGGSLRLSCAASGSILDPNAMGWYRQAPGKERELVASISRGDNTYYADSVKGRFRISRDNAKNTVYLQMNSLKPEDTAVYYCAADYSWVVWHDYWGQGTQVTVSS”: the “polyreactivity (PSR sort gate)” value was “low polyreactivity”.

For the sequence “QVQLVESGGGLVQAGGSLRLSCAASGGTFLYYMGWYRQAPGKEMELVAAITFSGGSTYYADSVKGRFTISRDNAKNTVYLQMNSLKPEDTAVYYCAAGWYDWPKYLLSVYTYYLYDSWGQGTQVTVSS”, the “polyreactivity (PSR sort gate)” value is listed as “low polyreactivity”.

As for “QGQLVESGGGLVQAGGSLRLSCAASVRTFYKYAMGWYRQAPGKERELVATITSGGSTNYADSVKGRFTISRDNAKNTVYLQMNSLKPEDTAVYYCAARGHIYKIRDPYWTHDYWGQGTQVTVSS”, the “polyreactivity (PSR sort gate)” value is “low polyreactivity”.

With “QVQLVESGGGLVQAGGSLRLSCAASGSTLTEYAMGWYRQAPGKEREFVAAISRSAGSTYYADSVKGRFTISRDNAKNTVYLQMNSLKPDDTAVYYCAVAVRVGFDYFSGQADIYYYWGQGTQVTVSS”, the “polyreactivity (PSR sort gate)” value is “low polyreactivity”.

Regarding “QVQLVESGGGLVQAGGSLRLSSAASAFIFSSYAMGWYRQAPWKERELVAAITRNGGSTYYADSVKGRFTISRDNAKNTVYLQMNSLKPEDTAVYYCAAQRWRGVGRFDYWGQGTQVTVSW”, the “polyreactivity (PSR sort gate)” value is on record as “high polyreactivity”.

Regarding “QVQLVESGGGLVQAGGSLRLSCPASGSTFKRNAMGWYRQAPGKERELVATITRRGGSTYADSVNGRFTISRDNAKNTVYLQMNSLKAEDTAVYYCARDGFSAGMDYWGQGTQVTVSS”, the “polyreactivity (PSR sort gate)” value was “low polyreactivity”.

Regarding “QVQLVESGGGLVQAGGSLRLSCAASGGTFLVNAMGWYRQAPGKERELVATITARVGSTYYADSVKGRFTISRDNAKNTVYLQMNSLKPEDTADYYCAAYPQLWYWDYNYWGQGTQVTVSS”, the “polyreactivity (PSR sort gate)” value is recorded as “high polyreactivity”.

In the case of “QVQLVESGGGIVQAGGRLRLSCAASGNTFQDYAMGWYRQAPGKERELVAAINSGGSTNYADSVKGRFTISRDNAKNTVYLQMNSLKPEDTAVYYCAAEPGEGFDYWGQGTQVTVSS”, the “polyreactivity (PSR sort gate)” value is given as “low polyreactivity”.

As to “QVQLVESGGGLVQAGGSLRLSCAASGRIFYRYAMGWYRQAPGKERELVAAIRSGGRTNYADSVKGRFTISRDNAKNTVYLQMNSLKPEDTAVYYCNAVWRYYRKRRAGDFGYWGQGTQVTVSS”, the “polyreactivity (PSR sort gate)” value is on record as “low polyreactivity”.

For the sequence “QVQLVESGGGVVQAGGSLRLSCAASGRICVRYAMGWYRQAPGKERELVAAISTRGGSTYYADSVKGRFTISRDNAKYTVYFQMNSLKPEDTAVYYCAARGVGPQPGYQRFNYWGQGTQVTVSS”, the “polyreactivity (PSR sort gate)” value is “high polyreactivity”.

Regarding “QVQLVESGGGLVQAGGSLRLSCAASGNAMGWYRQAPGKERELVASINRSGGRTYFADSVKGRFTISRDNAKNTVYLQMNRLIPEDTAVYYCAKGPRGADLTHGAYVEMEYWGQGTQVTVSS”, the “polyreactivity (PSR sort gate)” value is reported as “low polyreactivity”.

For the sequence “QVQLVESGGGLVQEGGSLRLSCAASGSIFSGYAMGWYRPAPGKERELVAAISSSGGSTYYADSVKGRFTISRDNAKNTVYLQMNSLKPEDTAFYYCAADARWLWVYGAYGGLDYWGQGTQVTLSS”, the “polyreactivity (PSR sort gate)” value is “low polyreactivity”.

As to “QVQLVESGGGLVQAGGSLRLSCAASGRTFVNYAMGWYRQAPGKERELVAAISGGGGTNYADSVKGRFTISRDNAKNTVYLQMNSLKPEDTAVYYCAADTNGYEFDYWGQGTQVTVSS”, the “polyreactivity (PSR sort gate)” value is given as “low polyreactivity”.

On to “QVQLVESGGGLVQAGGSLRLSCAASGSIFPRYVMAWYRQAPGKERELVAAISGSGGSTYYADSVKGRFTISRDNAKNTVYFQMNSLIPEDTAVYYCNKLRRRVNRDIDDYWGQGTQVTVSS”, for which the “polyreactivity (PSR sort gate)” value is listed as “high polyreactivity”.

With “QVQLVESGGGLVQAGGSLRLSCAASGSTFQLYSMGWYRQAPGKERELVAAIRWRGGSTYYADSVKGRFTISRDNAKNTVYLQMNSLKPEDTAFYYCAAVGYNYNVEYYYWGQGTQVTVSS”, the “polyreactivity (PSR sort gate)” value is given as “high polyreactivity”.

“QVQLVESGGGLVQAGGSLRLSCAASGFTFIWYAMGWYRQAPGKETELVATISWNGGRTYYADSVKGRFTISRDNANNTVYLQMNSLKPEDTAVYYCAADQGVYRTYWFDYWGQGTQVAVSS”: the “polyreactivity (PSR sort gate)” value is listed as “high polyreactivity”.

For “QVQLVESGGGLVQAGGSLRLSCAASGLTIYAYAMGWYRQAPGKERELVAIISYNGGRTYYADSVKGRFTISRDNAKNTVYLQMNSLKPEDTAVYYCAARGREVRYDYWGQGTQVTVSS”, the “polyreactivity (PSR sort gate)” value was “high polyreactivity”.

Take “QVQLVESGGGLVQAGGSLRLSCAASGRTFRAYGMGWYRQAPGKERELVAVISWRDGSTFYADSVKGRFTISRDNAKNTVYLQMNSLNPEDTAVYYCNTAYYPGNYSQYDYWGQGTQVTVSS”: the “polyreactivity (PSR sort gate)” value is “low polyreactivity”.

For the sequence “QVQLVESGGGLVQAGGSLRLSCAASGFTFAWNAKGWYRQAPGKERELVAAINRSGGSTKYADSVKGRFTISRDNAKNTVYLQMNSLKPEDTAVYFCNKYQLVRTYGSYSYYYWVQGTQVTVSS”, the “polyreactivity (PSR sort gate)” value was “high polyreactivity”.

Take “QVQLVESGGGLVQAGGSLRLSCAASGIIFTPYTMGWYRQAPGKERELVAAITGSGGSTYYADSVKGRFTISRDNAKNTVYLQMNSLKPEDTAVYYCAAYKQYRFYRYDYWGQGTQVTVSS”: the “polyreactivity (PSR sort gate)” value is given as “high polyreactivity”.

“QVQLVESGGGLVQAGGSLRLSCAASGIIFRRYAMGWYRQAPGKERELVAAITGSGGSTYYADSVKGRFTISRDNAKNTVYLQMNSLKPEDTAVYYCAAKGYPSRYSYGWYNYWGQGTQVTVSS”: the “polyreactivity (PSR sort gate)” value was “high polyreactivity”.

In the case of “QVQLVESGGGLVQAGGSLRLSCAASGGIFQGYAMGWYRQAPGKERELVAAISRSGGRTYYADSVKGRFTISRDNAKKTVYLQMNSLKPEDTSVYYCAADIRLSKYDYRGQGTQVTVSS”, the “polyreactivity (PSR sort gate)” value is recorded as “high polyreactivity”.

For “QVQLVESGGGLVQAGGSLRLICAASGSILYRYAMGWYRQAPGKERELVASISWSDGSTYYADSVKGRFTISRDNAKNTLYLQMNSLKPEDTAVYYCAAKGWGSDSYYAYGYDYWGQGTQVTVSS”, the “polyreactivity (PSR sort gate)” value is reported as “low polyreactivity”.

As to “QVQLVESGGGLVQAGGSLRLSCAASGSIFAAYTMGWYRQAPGNERELVAAISVSTVSTYYADSVKGRFTISRDNAKNTVYLQMNSLKPEDTAVYYCNADATDSYPEKDEHESWGQGTQVTVSS”, the “polyreactivity (PSR sort gate)” value is “low polyreactivity”.

In the case of “QVQLVESGGGLVQAGGSLRLSCAASGNTFSSNAMGWYRQAPGKERELVAGITKSGGRTYYADSVKGRFTISRDNAKNTVSLQMNSLKPEDTAVYYCAAVGSTVFGTRYYYWGQGTQVTVSS”, the “polyreactivity (PSR sort gate)” value was “high polyreactivity”.

In the case of “QVQLVESGGGLVQAGGSLRLSCAASGFIFGSYAMGWYRQAPGKERELVAAITSDGNTDYADSVKGRFTISRDNAKNTVYLQMNSLKPEDTAVYYCNKPYGAETALREFDYWGQGTQVTVSS”, the “polyreactivity (PSR sort gate)” value was “low polyreactivity”.

Turning to “QVQLVESGGGLVQAGGSLRLSCAASGSIFKVNTMGWYRQAPGKERELVAAISSSDDSTYYADSVKGRFTISRDNAKNTVYLQMNSLKPEDTAVYYCAADGSSVDSGGINDEYWGQGTQVTVSS”, the “polyreactivity (PSR sort gate)” value is recorded as “low polyreactivity”.

Regarding “QVQLVESGGCLVQAGGSLRLSCAASGRTFYTYAIGWYRQAPGQERELVAGIRTGGGSTYYADSVKGRFTISRDNAKNTVYLQMNSLKPEDTAVYYCAADTYDGYDYWGQGTQVTVSS”, the “polyreactivity (PSR sort gate)” value is “low polyreactivity”.

Regarding “QVQLVESGGGLVQAGGSLRLSCAASGSTFYKNAMGWYRQAPGKERELVAAINQSGTRTYYADSVKGRFTISRDNAKNTVYLQMNSLKPEDTAVYYCAAGRGPYYRSRTPLYYWGQGTQVTVSS”, the “polyreactivity (PSR sort gate)” value was “high polyreactivity”.

“QVQLVESGGGLVQAGGSLRLSCAASGFIFDGYAMGWYRQAPGKERELVAAISSSGGRTHYADSVKGRFTISRDNAKNTVYLQMNSLKPEDTAVYYCAVRFKWQGYNYWGQGTQVTVSS”: the “polyreactivity (PSR sort gate)” value is “high polyreactivity”.

Consider “QVQLVESGGGLVQAGGSLRLSCAASGSTLVYNDMGWYRQAPGKERELVAAISSGASTYADSVKGRFTISRDNAKNTVYLQMNSLKPEDTAVYYCAKDIKLGPVGHSKYHRYDYWGQGTQVTVSS”, for which the “polyreactivity (PSR sort gate)” value was “low polyreactivity”.

With “QVQLVESGGGLVQAAGSLRLSCAASGFTFWLYAMGWYRQAPGSEREMVAAIRRGGGTNYADSVKGRFTISRDNAKNTVYLQMNSLKPEDTAVYYCAAAVLSYRHAHAGYYYAKGDYWGQGTQVTVSS”, the “polyreactivity (PSR sort gate)” value is “high polyreactivity”.

“QVQLVESGGGLVQAGGSLRLSCAASGLTFRPNAMGWYRQAPGKERELVAAISWSGRTYYADSVKGRFTISRDNAKNTVYLQMNILKPEDTAVYYCAARGYSDRYGYWGQGTQVTVSS”: the “polyreactivity (PSR sort gate)” value is “high polyreactivity”.

As to “QVQLVESGGGLVQAGGSLRLSCAASGSTLITNDMGWYRQAPGKERELVATITYGTGSTYYADSVKGRFTISRDNAKNTVYLQMNSLKPEDTAVYYCNARRNYPKDSDGYDYWGQGTQVTVSS”, the “polyreactivity (PSR sort gate)” value is given as “low polyreactivity”.
